# Measured values: patent publication US20190077860A1 (EISAI R AND D MANAGEMENT, published 2019)
# Where a chain is given by its changes, count along the chain named. In names and notes the source's numbering stands.
# T1: human EphA6 extracellular region-SEAP-His protein (human, UniProt Q9UF33 23-550)
# T1 construct: extracellular domain; also called hEphA6-SEAP-His
# T1 sequence (looked up): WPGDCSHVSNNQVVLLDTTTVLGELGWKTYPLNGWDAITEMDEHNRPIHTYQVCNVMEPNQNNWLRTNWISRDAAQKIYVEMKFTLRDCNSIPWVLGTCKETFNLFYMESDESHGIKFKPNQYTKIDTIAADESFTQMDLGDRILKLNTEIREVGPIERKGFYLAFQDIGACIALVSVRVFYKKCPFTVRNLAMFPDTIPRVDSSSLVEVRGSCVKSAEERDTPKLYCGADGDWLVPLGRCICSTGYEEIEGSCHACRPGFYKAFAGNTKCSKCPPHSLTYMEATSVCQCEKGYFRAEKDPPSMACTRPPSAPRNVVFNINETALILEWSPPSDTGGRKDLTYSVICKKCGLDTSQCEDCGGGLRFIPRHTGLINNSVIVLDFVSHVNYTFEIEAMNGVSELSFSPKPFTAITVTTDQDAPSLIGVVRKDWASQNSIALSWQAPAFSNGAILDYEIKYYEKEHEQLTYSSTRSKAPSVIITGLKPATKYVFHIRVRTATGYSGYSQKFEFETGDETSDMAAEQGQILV
# T2: human EphA8 extracellular region-SEAP-His protein (human, UniProt P29322 28-542)
# T2 construct: extracellular domain; also called hEphA8-SEAP-His
# T2 sequence (looked up): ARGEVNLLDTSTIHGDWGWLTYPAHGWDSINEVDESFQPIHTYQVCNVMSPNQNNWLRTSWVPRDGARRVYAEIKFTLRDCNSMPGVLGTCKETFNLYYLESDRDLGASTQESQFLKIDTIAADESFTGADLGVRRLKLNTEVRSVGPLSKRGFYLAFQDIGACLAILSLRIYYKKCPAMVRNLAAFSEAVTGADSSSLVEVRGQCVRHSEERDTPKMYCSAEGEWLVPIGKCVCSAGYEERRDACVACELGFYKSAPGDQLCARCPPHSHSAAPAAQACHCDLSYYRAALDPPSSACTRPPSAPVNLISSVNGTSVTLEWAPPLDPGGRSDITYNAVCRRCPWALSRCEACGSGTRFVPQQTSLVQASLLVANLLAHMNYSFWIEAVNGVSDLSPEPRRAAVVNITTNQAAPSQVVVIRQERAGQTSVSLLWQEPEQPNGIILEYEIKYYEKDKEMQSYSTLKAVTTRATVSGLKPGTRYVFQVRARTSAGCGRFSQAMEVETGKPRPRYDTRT
# T3: human EphA10 extracellular region-SEAP-His protein (human, UniProt Q5JZY3 34-565)
# T3 construct: extracellular domain; also called hEphA10-SEAP-His
# T3 sequence (looked up): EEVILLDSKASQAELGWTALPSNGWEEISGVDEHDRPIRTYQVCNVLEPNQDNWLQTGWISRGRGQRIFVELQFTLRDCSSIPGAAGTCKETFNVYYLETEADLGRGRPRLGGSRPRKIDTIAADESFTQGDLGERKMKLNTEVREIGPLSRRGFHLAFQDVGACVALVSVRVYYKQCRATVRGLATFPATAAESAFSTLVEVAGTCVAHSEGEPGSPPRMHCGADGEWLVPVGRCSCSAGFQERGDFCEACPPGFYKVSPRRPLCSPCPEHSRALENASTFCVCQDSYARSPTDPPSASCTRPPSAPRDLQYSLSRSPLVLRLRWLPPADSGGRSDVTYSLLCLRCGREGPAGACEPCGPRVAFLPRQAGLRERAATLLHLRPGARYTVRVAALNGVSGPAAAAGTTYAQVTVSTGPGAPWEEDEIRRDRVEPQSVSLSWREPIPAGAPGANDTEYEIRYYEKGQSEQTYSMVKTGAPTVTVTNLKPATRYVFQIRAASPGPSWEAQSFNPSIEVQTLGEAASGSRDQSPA
# T4: human EphB2 extracellular region-SEAP-His protein (human, UniProt P29323 19-543)
# T4 construct: extracellular domain; also called hEphB2-SEAP-His
# T4 sequence (looked up): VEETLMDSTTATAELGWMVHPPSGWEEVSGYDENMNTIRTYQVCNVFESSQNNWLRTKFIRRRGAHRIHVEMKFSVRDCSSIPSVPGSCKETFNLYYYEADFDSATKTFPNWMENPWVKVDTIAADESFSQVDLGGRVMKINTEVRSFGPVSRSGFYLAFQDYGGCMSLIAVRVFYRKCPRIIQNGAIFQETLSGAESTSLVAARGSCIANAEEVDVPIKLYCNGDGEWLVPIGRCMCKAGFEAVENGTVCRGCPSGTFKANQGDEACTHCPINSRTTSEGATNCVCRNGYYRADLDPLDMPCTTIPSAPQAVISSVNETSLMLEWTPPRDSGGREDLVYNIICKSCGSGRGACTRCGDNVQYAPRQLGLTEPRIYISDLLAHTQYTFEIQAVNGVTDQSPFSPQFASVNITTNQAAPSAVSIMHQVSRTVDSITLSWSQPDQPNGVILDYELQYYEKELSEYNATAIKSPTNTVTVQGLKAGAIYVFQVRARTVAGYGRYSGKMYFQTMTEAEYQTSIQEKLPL
# B1: humanized antibody No. 76 (antibody, human IgG1, kappa)
# heavy: QVQLVQSGSELKKPGASVKVSCKASGYTFTDYSMHWVRQAPGQGLKWMGWINTETGEPTYAQGFTGRFVFSLDTSVSTAYLQISSLKAEDTAVYYCARIPLYYYGSRYWYFDVWGQGTTVTVSSASTKGPSVFPLAPSSKSTSGGTAALGCLVKDYFPEPVTVSWNSGALTSGVHTFPAVLQSSGLYSLSSVVTVPSSSLGTQTYICNVNHKPSNTKVDKRVEPKSCDKTHTCPPCPAPPAAAPSVFLFPPKPKDTLMISRTPEVTCVVVDVSHEDPEVQFNWYVDGVEVHNAKTKPREEQFNSTFRVVSVLTVVHQDWLNGKEYKCKVSNKGLPAPIEKTISKTKGQPREPQVYTLPPSREEMTKNQVSLTCLVKGFYPSDIAVEWESNGQPENNYKTTPPMLDSDGSFFLYSKLTVDKSRWQQGNVFSCSVMHEALHNHYTQKSLSLSPG
# light: DIQMTQSPSSLSASVGDRVTITCRASENIYRNLAWYQQKPGKAPKLLVYAATNLADGVPSRFSGSGSGTDYTLTISSLQPEDFATYYCQHFWGTPWTFGQGTKVEIKRTVAAPSVFIFPPSDEQLKSGTASVVCLLNNFYPREAKVQWKVDNALQSGNSQESVTEQDSKDSTYSLSSTLTLSKADYEKHKVYACEVTHQGLSSPVTKSFNRGEC
# notes: human Ig kappa; also called L1-4/HA2
# B2: humanized antibody No. 86 (antibody, human IgG1, kappa)
# heavy: B1 heavy with V2I, Q62D, G63D, T65K
# light: B1 light with V48L, P80S
# notes: human Ig kappa; also called L1-5/HK4
# B3: humanized antibody No. 87 (antibody, human IgG1, kappa)
# heavy: B1 heavy with K46E
# light: B1 light with K45Q, V48L
# notes: human Ig kappa; also called L1-6/HA1
# B4: humanized antibody No. 82 (antibody, human IgG1, kappa)
# heavy: B1 heavy
# light: B1 light with V48L, P80S
# notes: human Ig kappa; also called L1-5/HA2
# B5: humanized antibody No. 75 (antibody, human IgG1, kappa)
# heavy: B1 heavy with K46E
# light: B1 light
# notes: constant region: human IgG1 CH1 and hinge, human IgG2 CH2 and CH3 with V234A, G237A, no C-terminal Lys; human Ig kappa; also called L1-4/HA1
# B6: humanized antibody No. 81 (antibody, human IgG1, kappa)
# heavy: B1 heavy with K46E
# light: B1 light with V48L, P80S
# notes: human Ig kappa; also called L1-5/HA1
# B7: humanized antibody No. 78 (antibody, human IgG1, kappa)
# heavy: B1 heavy with Q62D, G63D, T65K
# light: B1 light
# notes: human Ig kappa; also called L1-4/HK2
# B8: humanized antibody No. 67 (antibody, human IgG1, kappa)
# heavy: B1 heavy with V2I
# light: B1 light
# notes: human Ig kappa; also called L1-4/HA4
# B9: humanized antibody No. 84 (antibody, human IgG1, kappa)
# heavy: B1 heavy with K46E, Q62D, G63D, T65K
# light: B1 light with V48L, P80S
# notes: human Ig kappa; also called L1-5/HK1
# B10: humanized antibody No. 69 (antibody, human IgG1, kappa)
# heavy: B1 heavy with V2I, Q62D, G63D, T65K
# light: B1 light
# notes: human Ig kappa; also called L1-4/HK4
# B11: humanized antibody No. 83 (antibody, human IgG1, kappa)
# heavy: B1 heavy with V2I
# light: B1 light with V48L, P80S
# notes: human Ig kappa; also called L1-5/HA4
# B12: humanized antibody No. 85 (antibody, human IgG1, kappa)
# heavy: B1 heavy with Q62D, G63D, T65K
# light: B1 light with V48L, P80S
# notes: human Ig kappa; also called L1-5/HK2
# B13: humanized antibody No. 77 (antibody, human IgG1, kappa)
# heavy: B1 heavy with K46E, Q62D, G63D, T65K
# light: B1 light
# notes: human Ig kappa; also called L1-4/HK1
# Target: T5, human EphA2 extracellular region-SEAP-His protein (human, UniProt P29317 24-537)
# T5 construct: extracellular domain; also called hEphA2-SEAP-His
# T5 sequence (P29317 24-537): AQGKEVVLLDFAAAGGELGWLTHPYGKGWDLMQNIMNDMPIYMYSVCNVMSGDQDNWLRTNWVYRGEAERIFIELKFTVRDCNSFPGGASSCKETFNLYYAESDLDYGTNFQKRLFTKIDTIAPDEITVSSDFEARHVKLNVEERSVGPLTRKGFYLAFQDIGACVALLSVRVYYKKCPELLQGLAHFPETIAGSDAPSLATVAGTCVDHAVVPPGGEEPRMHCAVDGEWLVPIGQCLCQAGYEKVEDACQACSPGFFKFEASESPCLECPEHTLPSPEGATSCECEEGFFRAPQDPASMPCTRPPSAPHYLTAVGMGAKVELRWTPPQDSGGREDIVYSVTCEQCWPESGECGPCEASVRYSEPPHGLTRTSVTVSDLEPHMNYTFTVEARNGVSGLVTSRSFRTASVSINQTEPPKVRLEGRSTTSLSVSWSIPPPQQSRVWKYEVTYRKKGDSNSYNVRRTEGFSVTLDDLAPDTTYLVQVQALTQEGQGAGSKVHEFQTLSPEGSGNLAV
# Test: ELISA
row,Binder,A450 as % of hEphA4-SEAP-His [%]
1,B1,4.8
2,B2,5.7
3,B3,5.4
4,B4,5.4
5,B5,4.6
6,B6,4.8
7,B7,4.9
8,B8,4.6
9,B9,4.9
10,B10,5.5
11,B11,5.8
12,B12,5.1
13,B13,4.5

# Target: T1, human EphA6 extracellular …
# Test: ELISA
row,Binder,A450 as % of hEphA4-SEAP-His [%]
1,B1,7.9
2,B2,8.6
3,B3,6.4
4,B4,8.7
5,B5,8.3
6,B6,8.8
7,B7,10
8,B8,7.3
9,B9,6
10,B10,9.5
11,B11,7.5
12,B12,6.2
13,B13,6

# Target: T2, human EphA8 extracellular …
# Test: ELISA
row,Binder,A450 as % of hEphA4-SEAP-His [%]
1,B1,5.5
2,B2,5.7
3,B3,5.7
4,B4,5.8
5,B5,4.8
6,B6,5.2
7,B7,5.4
8,B8,4.7
9,B9,5.3
10,B10,5.5
11,B11,6
12,B12,5.5
13,B13,4.8

# Target: T3, human EphA10 extracellular …
# Test: ELISA
row,Binder,A450 as % of hEphA4-SEAP-His [%]
1,B1,4.7
2,B2,5.6
3,B3,5.2
4,B4,5.4
5,B5,4.4
6,B6,4.8
7,B7,5.2
8,B8,4.6
9,B9,5.1
10,B10,5.4
11,B11,5.6
12,B12,5
13,B13,4.5

# Target: T4, human EphB2 extracellular …
# Test: ELISA
row,Binder,A450 as % of hEphA4-SEAP-His [%]
1,B1,4.9
2,B2,5.7
3,B3,5.4
4,B4,5.6
5,B5,4.5
6,B6,5
7,B7,5.1
8,B8,4.7
9,B9,4.9
10,B10,5.5
11,B11,5.6
12,B12,5.1
13,B13,4.5
